Data as given in US20240116985A1, “STAPLED PEPTIDES AND METHODS THEREOF” (priority 2020, published 2024).
Starred links: 1 amine or outer side, 2 acyl side, 3 side chain; linkers in the order of their positions; H or OH if unused. Positions of bridges follow the written chain, without caps; N, C: chain ends. Non-standard residues stand in square brackets, D forms with d. Primed or numbered codes have the meaning given here. PyrS2″ = (S)-3-amino-1-((pent-4-en-1-yloxy)carbonyl)pyrrolidine-3-carboxylic acid (stapling residue), C=CCCCOC(=O)N1CC[C@@](N[*:1])(C(=O)[*:2])C1; B5(4) = 2,2-bis(4-pentenyl)glycine = 2-amino-2-(pent-4-en-1-yl)hept-6-enoic acid (stitching residue), C=CCCCC(CCCC=C)(N[*:1])C(=O)[*:2]; B5(5) = 2,2-bis(4-pentenyl)glycine, 2-amino-2-(pent-4-en-1-yl)hept-6-enoic acid (stitching residue), C=CCCCC(CCCC=C)(N[*:1])C(=O)[*:2]; PyrS2 = (S)-3-amino-1-((pent-4-en-1-yloxy)carbonyl)pyrrolidine-3-carboxylic acid, C=CCCCOC(=O)N1CC[C@@](N[*:1])(C(=O)[*:2])C1; (NMe2)GlnR(3) = [NMe2]GlnR, N5,N5-dimethyl-L-glutamine, CN(C)C(=O)CC[C@H](N[*:1])C(=O)[*:2]; B5(3) = 2,2-bis(4-pentenyl)glycine (stitching residue), C=CCCCC(CCCC=C)(N[*:1])C(=O)[*:2]; Me2Asn = listed as N4-methyl-L-asparagine, CNC(=O)C[C@H](N[*:1])C(=O)[*:2]; Phe(3-CF3) = N[C@@H](Cc1cccc(C(F)(F)F)c1)C(=O)O; Phe(3-COOH) = N[C@@H](Cc1cccc(C(=O)O)c1)C(=O)O; 2F3MeF = Cc1cccc(C[C@H](N[*:1])C(=O)[*:2])c1F; Phe(2-CF3) = N[C@@H](Cc1ccccc1C(F)(F)F)C(=O)O; Phe(2-Cl) = N[C@@H](Cc1ccccc1Cl)C(=O)O; Bta = N[C@@H](Cc1csc2ccccc12)C(=O)O; Lys(iPr) = CC(C)NCCCC[C@H](N)C(=O)O; αAllylPro = C=CC[C@@]1(C(=O)O)CCCN1; tBuAla = CC(C)(C)C[C@H](N)C(=O)O; 3Thi = N[C@@H](Cc1ccsc1)C(=O)O; Cha = N[C@@H](CC1CCCCC1)C(=O)O; S8 = C=CCCCCCC[C@](C)(N)C(=O)O; hSer = N[C@@H](CCO)C(=O)O; 34ClF = not defined here; Nle = CCCC[C@H](N)C(=O)O; Aib = CC(C)(N)C(=O)O

B1: I-1268 (peptide)
peptide: Ac-[αAllylPro]D[tBuAla][B5(3)]DTAA[Phe(3-CF3)]T[PyrS2″]F[Bta]S-NH2
modifications: staple 1-4; staple 4-11 (inferred); not fully specified; printed as Ac-PL3-Asp-Npg-B5-Asp-Thr-Ala-Ala-3F3MeF-Thr-PyrS2-Phe-BztA-Ser-NH2
B2: I-2182 (peptide)
peptide: Ac-[αAllylPro]D[tBuAla][B5(4)]DDAAFN[PyrS2″][3Thi][34ClF]Q-NH2
modifications: staple 1-4, 4-11; reading uncertain; also: printed as Ac-PL3-Asp-Npg-B5-Asp-Asp-Ala-Ala-Phe-Asn-PyrS2-3Thi-34C1F-Gln-NH2

What follows are binders tested against full-length beta-Catenin (Uniprot ID P35222) (Homo sapiens (Human)) (UniProt P35222) (assay: fluorescence polarization competition; competitor 5FAM-TCF4(10-53) probe on full-length beta-catenin).
Target sequence in this assay (P35222 whole entry): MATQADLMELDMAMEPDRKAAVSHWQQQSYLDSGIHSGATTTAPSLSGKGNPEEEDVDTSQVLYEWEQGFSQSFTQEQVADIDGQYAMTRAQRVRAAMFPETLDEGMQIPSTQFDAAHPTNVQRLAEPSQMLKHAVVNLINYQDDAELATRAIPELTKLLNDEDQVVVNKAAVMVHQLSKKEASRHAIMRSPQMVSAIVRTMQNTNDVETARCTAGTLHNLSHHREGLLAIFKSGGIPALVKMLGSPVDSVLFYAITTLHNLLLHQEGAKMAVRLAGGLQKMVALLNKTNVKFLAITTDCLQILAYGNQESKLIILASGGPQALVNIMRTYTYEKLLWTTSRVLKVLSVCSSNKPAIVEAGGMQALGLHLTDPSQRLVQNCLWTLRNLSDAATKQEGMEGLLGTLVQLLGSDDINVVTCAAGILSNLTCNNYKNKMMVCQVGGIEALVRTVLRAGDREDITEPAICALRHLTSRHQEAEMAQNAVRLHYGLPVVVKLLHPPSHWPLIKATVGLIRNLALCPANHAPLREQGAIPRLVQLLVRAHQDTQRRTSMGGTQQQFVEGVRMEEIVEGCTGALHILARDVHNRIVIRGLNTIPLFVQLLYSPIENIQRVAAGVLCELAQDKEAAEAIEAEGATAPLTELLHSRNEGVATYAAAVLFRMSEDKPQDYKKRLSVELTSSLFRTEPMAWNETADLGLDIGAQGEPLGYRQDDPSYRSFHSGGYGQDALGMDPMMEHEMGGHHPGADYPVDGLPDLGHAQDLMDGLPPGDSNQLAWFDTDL

Binder | IC50
Ac-[αAllylPro]D[tBuAla][B5(5)]D[Phe(3-COOH)]A[dA]FL[PyrS2″][2F3MeF][Bta]A-NH2 (staple 1-4, 4-11; also: later eluting HPLC isomer) [I-2099] | 325 nM
Ac-[αAllylPro]D[tBuAla][B5(3)]D[Phe(3-COOH)]A[dA]FL[PyrS2″][2F3MeF][Bta][dA]-NH2 (staple 1-4, 4-11) [I-2101] | 424 nM
Ac-[αAllylPro]N[Cha][B5(4)]DQ[Lys(iPr)]AF[Lys(iPr)][PyrS2″]F[Bta][hSer]-NH2 (staple 1-4, 4-11) [I-2102] | 273 nM
Ac-[αAllylPro]N[Cha][B5(4)]DQ[Lys(iPr)]AFN[PyrS2″]F[Bta]K-NH2 (staple 1-4, 4-11) [I-2110] | 88 nM
Ac-[αAllylPro]D[tBuAla][B5(4)]D[Phe(3-COOH)]A[dA]FL[PyrS2″][2F3MeF][Bta]A-NH2 (staple 1-4, 4-11; also: earlier-eluting HPLC isomer composition) [I-2098] | 260 nM
Ac-[αAllylPro]N[Cha][B5(4)]DQ[Lys(iPr)]AFN[PyrS2″]F[Bta]H-NH2 (staple 1-4, 4-11) [I-2109] | 136 nM

Each binder was assayed against full-length beta-Catenin (Uniprot ID P35222) (Homo sapiens (Human)) (UniProt P35222) (assay: fluorescence polarization competition; peptide titrated against 10 nM full-length beta-catenin + 10 nM 5FAM-TCF4(10-53) probe).
Target sequence in this assay (P35222 whole entry): as above

Binder | EC50
Ac-[αAllylPro]DL[B5(4)]DEAAFN[S8]F[Bta]-NH2 (staple 1-4, 4-11; also: later eluting HPLC peak (staple isomer)) [I-625] | 119 nM
Ac-[αAllylPro]DL[B5(4)]DEAAFN[S8]F[Bta]-NH2 (staple 1-4, 4-11; also: earlier eluting HPLC peak (staple isomer)) [I-624] | 273 nM

What follows are binders tested against full-length beta-Catenin (Uniprot ID P35222) (Homo sapiens (Human)) (UniProt P35222) (assay: fluorescence polarization competition; full-length beta-catenin + 5FAM-TCF4(10-53) probe).
Target sequence in this assay (P35222 whole entry): as above

Binder | EC50
B1 | 198 nM

Each binder was assayed against full-length beta-Catenin (Uniprot ID P35222) (Homo sapiens (Human)) (UniProt P35222) (assay: fluorescence polarization competition; 10 nM full-length beta-catenin, 10 nM 5FAM-TCF4(10-53) probe).

Binder | IC50
Ac-[αAllylPro]N[tBuAla][B5(5)]DQ[Lys(iPr)]AF[Lys(iPr)][PyrS2″]F[Bta]Q-NH2 (staple 1-4, 4-11) [I-1653] | 903 nM
Ac-[αAllylPro]N[tBuAla][B5(4)]DQ[Lys(iPr)]AFL[PyrS2]F[Bta][hSer]-NH2 (staple 1-4, 4-11) [I-1646] | 640 nM
B2 | 5 nM
Ac-[αAllylPro]N[tBuAla][B5(5)]DQ[Lys(iPr)]AFL[PyrS2″]F[Bta][Cha]-NH2 (staple 1-4, 4-11) [I-1652] | 10000 nM
Ac-[αAllylPro]N[tBuAla][B5(5)]DQ[Lys(iPr)]AFL[PyrS2″][Cha][Bta]Q-NH2 (staple 1-4, 4-11) [I-1651] | 3970 nM
Ac-[αAllylPro]D[tBuAla][B5(4)]D[Phe(3-COOH)][Nle]AFL[PyrS2″][3Thi][Bta][tBuAla]-NH2 (staple 1-4, 4-11) [I-2193] | 164 nM
Ac-[αAllylPro]D[tBuAla][B5(4)]D[Phe(3-COOH)]AAFF[PyrS2″][Phe(2-CF3)][Bta][Me2Gln]-NH2 (staple 1-4, 4-11) [I-2534] | 21 nM
Ac-[αAllylPro]D[tBuAla][B5(4)]D[Phe(3-COOH)][Aib]AF[Nle][PyrS2″][3Thi][Bta][(NHEt)GlnR]-NH2 (staple 1-4, 4-11) [I-2552] | 12 nM
Ac-[αAllylPro]N[tBuAla][B5(5)]DQ[Lys(iPr)]AF[Lys(iPr)][PyrS2″]F[Bta][Lys(iPr)]-NH2 (staple 1-4, 4-11) [I-1654] | 2130 nM
Ac-[αAllylPro]N[tBuAla][B5(4)]DQ[Lys(iPr)]AFL[PyrS2]F[Bta][Lys(iPr)]-NH2 (staple 1-4, 4-11) [I-1645] | 940 nM
Ac-[αAllylPro]D[tBuAla][B5(4)]D[Phe(3-COOH)]AAFL[PyrS2″][Phe(2-CF3)][Bta][MorphGln]-NH2 (staple 1-4, 4-11) [I-2541] | 21 nM
Ac-[αAllylPro]N[tBuAla][B5(4)]DQ[Lys(iPr)]A[Cha]L[PyrS2]F[Bta]Q-NH2 (staple 1-4, 4-11) [I-1649] | 2480 nM
Ac-[αAllylPro]N[tBuAla][B5(4)]DQ[Lys(iPr)]AFL[PyrS2]F[Bta][tBuAla]-NH2 (staple 1-4, 4-11) [I-1644] | 10000 nM
Ac-[αAllylPro]D[tBuAla][B5(4)]D[Phe(3-COOH)][Nle]AFL[PyrS2″][3Thi][Bta]V-NH2 (staple 1-4, 4-11) [I-2189] | 83 nM
Ac-[αAllylPro]D[tBuAla][B5(4)]D[Phe(3-COOH)][Me2Asn]AFL[PyrS2″][3Thi][Bta][tBuAla]-NH2 (staple 1-4, 4-11) [I-2196] | 41 nM
Ac-[αAllylPro]D[tBuAla][B5(4)]D[Phe(3-COOH)][Aib]AF[Nle][PyrS2″][3Thi][Bta][(NMe2)GlnR(3)]-NH2 (staple 1-4, 4-11) [I-2551] | 8 nM
Ac-[αAllylPro]N[tBuAla][B5(5)]DQ[Lys(iPr)]AF[Cha][PyrS2]F[Bta]Q-NH2 (staple 1-4, 4-11) [I-1650] | 1680 nM
Ac-[αAllylPro]D[tBuAla][B5(4)]D[Phe(3-COOH)][Me2Asn]AFL[PyrS2″][3Thi][Bta]V-NH2 (staple 1-4, 4-11) [I-2191] | 16 nM
Ac-[αAllylPro]N[tBuAla][B5(4)]DQ[Lys(iPr)]AFL[PyrS2]F[Bta]K-NH2 (staple 1-4, 4-11) [I-1643] | 822 nM
Ac-[αAllylPro]D[tBuAla][B5(4)]D[Phe(3-COOH)]SAFL[PyrS2″][3Thi][Bta][tBuAla]-NH2 (staple 1-4, 4-11) [I-2195] | 62 nM
Ac-[αAllylPro]D[tBuAla][B5(4)]D[Phe(3-COOH)]AAFF[PyrS2″][Phe(2-CF3)][Bta][MorphGln]-NH2 (staple 1-4, 4-11) [I-2543] | 37 nM
Ac-[αAllylPro]D[tBuAla][B5(4)]D[Phe(3-COOH)][Aib]AFL[PyrS2″][3Thi][Bta][tBuAla]-NH2 (staple 1-4, 4-11) [I-2194] | 91 nM
Ac-[αAllylPro]D[tBuAla][B5(4)]D[Phe(3-COOH)]QAFL[PyrS2″][3Thi][Bta][tBuAla]-NH2 (staple 1-4, 4-11) [I-2192] | 22 nM

These binders were tested against full-length beta-Catenin (Uniprot ID P35222) (Homo sapiens (Human)) (UniProt P35222) (assay: fluorescence polarization competition; full-length beta-catenin with 5FAM-TCF4(10-53) probe as competitor).
Target sequence in this assay (P35222 whole entry): as above

Binder | IC50
Ac-[αAllylPro]DL[B5(4)]DEAAFN[S8]F[Bta]-NH2 (staple 1-4, 4-11; also: later eluting HPLC peak (staple isomer)) [I-625] | 119 nM
Ac-[αAllylPro]DL[B5(4)]DEAAFN[S8]F[Bta]-NH2 (staple 1-4, 4-11; also: earlier eluting HPLC peak (staple isomer)) [I-624] | 273 nM

The binders below were run against full-length beta-Catenin (Uniprot ID P35222) (Homo sapiens (Human)) (UniProt P35222) (assay: fluorescence polarization competition vs 5FAM-TCF4(10-53) on full-length beta-catenin).
Target sequence in this assay (P35222 2-781 limits assumed): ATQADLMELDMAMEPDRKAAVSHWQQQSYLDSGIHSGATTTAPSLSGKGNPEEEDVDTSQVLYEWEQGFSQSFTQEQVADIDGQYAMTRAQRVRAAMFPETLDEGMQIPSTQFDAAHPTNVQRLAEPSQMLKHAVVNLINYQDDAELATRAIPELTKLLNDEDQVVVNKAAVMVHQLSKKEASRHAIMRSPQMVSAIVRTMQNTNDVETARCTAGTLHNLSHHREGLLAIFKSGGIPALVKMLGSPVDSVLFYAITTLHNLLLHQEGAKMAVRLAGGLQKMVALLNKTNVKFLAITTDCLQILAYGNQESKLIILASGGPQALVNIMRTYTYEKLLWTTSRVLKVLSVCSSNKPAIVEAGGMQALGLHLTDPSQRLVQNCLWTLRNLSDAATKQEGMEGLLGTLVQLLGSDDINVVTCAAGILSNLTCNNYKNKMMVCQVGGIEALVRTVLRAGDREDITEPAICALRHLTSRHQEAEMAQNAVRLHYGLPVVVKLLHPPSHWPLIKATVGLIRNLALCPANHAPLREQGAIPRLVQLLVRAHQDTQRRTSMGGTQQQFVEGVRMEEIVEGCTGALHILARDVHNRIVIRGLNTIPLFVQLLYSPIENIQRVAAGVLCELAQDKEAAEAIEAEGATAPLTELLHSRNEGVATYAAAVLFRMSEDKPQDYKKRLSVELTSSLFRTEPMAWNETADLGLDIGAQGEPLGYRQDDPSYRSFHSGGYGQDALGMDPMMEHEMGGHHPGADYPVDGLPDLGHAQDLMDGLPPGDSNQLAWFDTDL

Binder | IC50
Ac-[αAllylPro]D[Cha][B5(4)]DDLLFS[PyrS2″][Phe(2-Cl)][Bta]Q-NH2 (staple 1-4, 4-11) [I-1149] | 70 nM

What follows are binders tested against full-length beta-Catenin (Uniprot ID P35222) (Homo sapiens (Human)) (UniProt P35222) (assay: fluorescence polarization competition; displacement of 5FAM-TCF4(10-53) from full-length beta-catenin).
Target sequence in this assay (P35222 whole entry): as the sequence (P35222 whole entry) above

Binder | IC50
Ac-[αAllylPro]D[Cha][B5(5)]DDAAF[Cha][PyrS2″][Phe(2-Cl)][Bta]S-NH2 (staple 1-4, 4-11) [I-1113] | 64 nM

These binders were tested against full-length beta-Catenin (Uniprot ID P35222) (Homo sapiens (Human)) (UniProt P35222) (assay: fluorescence polarization competition, 5FAM-TCF4 10-53 probe on full-length beta-catenin).
Target sequence in this assay (P35222 2-781 limits assumed): as the sequence (P35222 2-781 limits assumed) above

Binder | EC50
Ac-[αAllylPro]D[Cha][B5(4)]DDLLFS[PyrS2″][Phe(2-Cl)][Bta]Q-NH2 (staple 1-4, 4-11) [I-1149] | 70 nM
Ac-[αAllylPro]D[Cha][B5(5)]DDAAF[Cha][PyrS2″][Phe(2-Cl)][Bta]S-NH2 (staple 1-4, 4-11) [I-1113] | 64 nM
